Reference: patent US20080241166A1 (DOMANTIS, published 2008)
Each block holds one binder with its values, some of them ahead of it.

What was measured:
[1] = biological target: T1, human TNFR1 (human p55 TNF receptor) (human, UniProt P19438 30-211, limits assumed); assay: selection from dAb libraries
T1 construct: also called TNF receptor 1; TNFα receptor
T1 sequence: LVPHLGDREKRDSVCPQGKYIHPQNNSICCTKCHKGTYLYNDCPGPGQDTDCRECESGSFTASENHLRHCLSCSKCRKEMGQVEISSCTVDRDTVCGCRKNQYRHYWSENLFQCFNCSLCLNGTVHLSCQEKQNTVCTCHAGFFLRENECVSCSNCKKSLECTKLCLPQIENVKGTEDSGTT

mouse serum albumin = biological target: T2, mouse serum albumin (mouse, UniProt P07724 25-608); assay: capture ELISA: dAb on protein A, biotinylated MSA, streptavidin HRP
T2 construct: Biotinylated (about 2 biotins per molecule) in the capture ELISA; unlabelled on the CM5 chip; also called MSA; biotinylated MSA
T2 sequence (P07724 25-608 limits assumed): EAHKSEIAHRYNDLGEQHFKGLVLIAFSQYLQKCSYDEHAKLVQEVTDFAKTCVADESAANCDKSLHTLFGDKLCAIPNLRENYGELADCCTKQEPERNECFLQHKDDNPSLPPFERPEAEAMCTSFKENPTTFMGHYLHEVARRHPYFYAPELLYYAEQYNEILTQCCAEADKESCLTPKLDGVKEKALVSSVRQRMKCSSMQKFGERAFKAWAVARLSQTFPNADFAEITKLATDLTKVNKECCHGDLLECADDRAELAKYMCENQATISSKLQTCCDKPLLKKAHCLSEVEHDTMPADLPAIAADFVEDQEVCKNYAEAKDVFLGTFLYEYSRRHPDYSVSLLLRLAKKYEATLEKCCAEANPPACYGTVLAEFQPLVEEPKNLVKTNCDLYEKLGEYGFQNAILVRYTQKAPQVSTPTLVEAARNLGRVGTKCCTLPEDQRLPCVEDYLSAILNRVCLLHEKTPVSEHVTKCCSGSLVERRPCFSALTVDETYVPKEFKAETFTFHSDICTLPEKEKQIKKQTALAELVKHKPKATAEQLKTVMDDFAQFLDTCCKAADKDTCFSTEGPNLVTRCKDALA

[2] = biological target: T3, EGFR expressed on A431 cells (UniProt P00533 25-1210, limits assumed); assay: EGFR receptor binding assay: inhibition of biotinylated EGF binding to A431 cells; highest value obtained
T3 construct: whole, on cells

[3] = biological target: T3, EGFR expressed on A431 cells; assay: cell-based or functional assay
[4] = biological target: EGFR (as used for the KD column of Table 10) (UniProt P00533 25-645, limits assumed); assay: method not described
[5] = biological target: T3, EGFR expressed on A431 cells; assay: EGFR receptor binding assay: inhibition of biotinylated EGF binding to A431 cells; average
[6] = biological target: T3, EGFR expressed on A431 cells; assay: EGFR receptor binding assay: inhibition of biotinylated EGF binding to A431 cells; lowest value obtained

binding result [1]: binds
B1: TAR2h-5 VH dAb (other)
VH: EVQLLESGGGLVQPGGSLRLSCAASGFTFDLYNMFWVRQAPGKGLEWVSFISQTGRLTWYADSVKGRFTISRDNSKNTLYLQMNSLRAEDTAVYYCAKTLEDFDYWGQGTLVTVSS
notes: TAR2-5 and TAR2h-5 are used for the same dAb; also called TAR2-5

binding result (mouse serum albumin): binds
B2: anti-serum albumin VH dAb, clone 36 (other)
VH: EVQLLESGGGLVQPGGSLRLSCAASGFTFWSYQMTWVRQAPGKGLEWVSSISSFGSSTLYADSVKGRFTISRDNSKNTLYLQMNSLRAEDTAVYYCAKGRDHNYSLFDYWGQGTLVTVSS
notes: ranges to be checked

IC50 [2]: 1.47 nM
KINASE ASSAY IC50, average [3]: 8.69 nM
KINASE ASSAY IC50, highest value [3]: 11.1 nM
KINASE ASSAY IC50, lowest value [3]: 6.82 nM
Kd [4]: 1.01 nM
IC50 [5]: 1.05 nM
IC50 [6]: 0.746 nM
B3: DOM16-39-109 (other)
chain: DIQMTQSPTSLSASVGDRVTITCRASQWIGNLLDWYQQKPGEAPKLLIYYASFLQSGVPSRFSGGGFGTDFTLTISSLQPEDFATYYCQQANPAPLTFGQGTKVEIKR
notes: anti-EGFR dAb

binding result (mouse serum albumin): binds
B4: anti-serum albumin VH dAb, clones 8, 10 (other)
VH: EVQLLESGGGLVQPGGSLRLSCAASGFTFWVYQMDWVRQAPGKGLEWVSSISAFGAKTLYADSVKGRFTISRDNSKNTLYLQMNSLRAEDTAVYYCAKLSGKFDYWGQGTLVTVSS
notes: dAb
